Laboratory results taken from patent US20240132578A1.
“And” between values parts separate entries of the source, which are not always exact repeats. Equal entries are not always repeated.

Key:
Test in all cases: cell-based or functional assay
[1] = target: HIV-1 92BR020 envelope glycoprotein (Env) on pseudovirus (HIV-1)
[2] = target: HIV-1 93IN905 envelope glycoprotein (Env) on pseudovirus (HIV-1)
[3] = target: HIV-1 NL43 envelope glycoprotein (Env) on pseudovirus (HIV-1)
[4] = target: HIV-1 JRFL envelope glycoprotein (Env) on pseudovirus (HIV-1)
[5] = target: HIV-1 MGRM-C-028 envelope glycoprotein (Env) on pseudovirus (HIV-1)
[6] = target: HIV-1 APV6 envelope glycoprotein (Env) on pseudovirus (HIV-1)
[7] = target: HIV-1 APV13 envelope glycoprotein (Env) on pseudovirus (HIV-1)
[8] = target: HIV-1 94UG103 envelope glycoprotein (Env) on pseudovirus (HIV-1)
[9] = target: HIV-1 93UG077 envelope glycoprotein (Env) on pseudovirus (HIV-1)
[10] = target: HIV-1 MGRM-C-027 envelope glycoprotein (Env) on pseudovirus (HIV-1)
[11] = target: HIV-1 MGRM-C-026 envelope glycoprotein (Env) on pseudovirus (HIV-1)
[12] = target: HIV-1 MGRM-A-010 envelope glycoprotein (Env) on pseudovirus (HIV-1)
[13] = target: HIV-1 APV17 envelope glycoprotein (Env) on pseudovirus (HIV-1)
[14] = target: HIV-1 92RW020 envelope glycoprotein (Env) on pseudovirus (HIV-1)
[15] = target: HIV-1 JRCSF envelope glycoprotein (Env) on pseudovirus (HIV-1) (UniProt P20871)
[16] = target: HIV-1 Env of pseudovirus 92TH021 (HIV-1)
[17] = target: HIV-1 Env of pseudovirus MGRM-C-26 (HIV-1)
[18] = target: HIV-1 Env of pseudovirus JRCSF (HIV-1) (UniProt P20871)
[19] = target: HIV-1 Env of pseudovirus 92BR020 (HIV-1)
[20] = target: HIV-1 Env of pseudovirus 94UG103 (HIV-1)

Chain of PGT-136 monoclonal antibody (5329_C19; 5366_P21) (VH): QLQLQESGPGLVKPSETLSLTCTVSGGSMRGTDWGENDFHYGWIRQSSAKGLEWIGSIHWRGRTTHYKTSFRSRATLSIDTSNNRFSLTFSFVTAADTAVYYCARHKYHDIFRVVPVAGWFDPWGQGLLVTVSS
Chain of PGT-136 monoclonal antibody (5329_C19; 5366_P21) (VL): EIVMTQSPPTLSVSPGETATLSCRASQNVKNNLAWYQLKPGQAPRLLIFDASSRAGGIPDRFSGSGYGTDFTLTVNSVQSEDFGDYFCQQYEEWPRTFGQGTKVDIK

Substance | IC50 neutralization [1] [µg/mL] | IC50 neutralization [2] [µg/mL] | IC50 neutralization [3] [µg/mL] | IC50 neutralization [4] [µg/mL] | IC50 neutralization [5] [µg/mL] | IC50 neutralization [6] [µg/mL] | IC50 neutralization [7] [µg/mL] | IC50 neutralization [8] [µg/mL] | IC50 neutralization [9] [µg/mL] | IC50 neutralization [10] [µg/mL] | IC50 neutralization [11] [µg/mL] | IC50 neutralization [12] [µg/mL] | IC50 neutralization [13] [µg/mL] | IC50 neutralization [14] [µg/mL] | IC50 neutralization [15] [µg/mL] | Primary Neutralization Index (B cell culture supernatant) [16] | Primary Neutralization Index (B cell culture supernatant) [17] | Primary Neutralization Index (B cell culture supernatant) [18] | Primary Neutralization Index (B cell culture supernatant) [19] | Primary Neutralization Index (B cell culture supernatant) [20]
PGT-130 monoclonal antibody (5147_N06) | 1.12 | 0.0182 | > 10 | 0.0346 | > 10 | > 10 | 0.0345 | 0.635 | > 10 | 0.0052 | 0.0173 | 0.0054 | > 10 | 0.014 | 0.0089 | – | – | – | – | –
Antibody of B cell culture well 5113_D22 (labelled PGT-132 in Table 26) | – | – | – | – | – | – | – | – | – | – | – | – | – | – | – | 51 | 6 | 3 | – | –
PGT-125 monoclonal antibody (5123_A06) | 0.0214 | 0.0137 | > 10 | 0.0156 | 5.78 | 0.0359 | 0.0128 | 0.0124 | 0.0262 | > 10 | 0.0106 | 0.0055 | 7.31 | 0.0028 | 0.006 | – | – | – | – | –
PGT-121 (B cell culture wells 4838_L06 and 4873_E03) (antibody) | – | – | – | – | – | – | – | – | – | – | – | – | – | – | – | – | 996 and 371 | 3.2 and 2.2 | 4.9 and 3.6 | 1.4 and 0.8
PGT-123 monoclonal antibody (4858_P08) | 0.013 | 0.0071 | > 10 | 0.0283 | 0.443 | 0.0328 | 0.222 | 0.846 | 0.0303 | 0.0169 | 0.0031 | 0.492 | 0.18 | 0.0038 | 0.0423 | – | – | – | – | –
Antibody of B cell culture well 5117_E22 (labelled PGT-133 in Table 26) | – | – | – | – | – | – | – | – | – | – | – | – | – | – | – | 42.5 | 3.4 | 3.6 | – | –
PGT-136 monoclonal antibody (5329_C19; 5366_P21) | > 10 | 0.0135 | > 10 | > 10 | > 10 | > 10 | > 10 | > 10 | > 10 | > 10 | 0.0065 | > 10 | > 10 | 0.738 | > 10 | – | – | – | – | –
PGT-126 monoclonal antibody (5141_B17) | 0.0163 | 0.0194 | > 10 | 0.014 | 0.283 | 0.0249 | 0.012 | 0.0091 | 0.0256 | 1.14 | 0.0076 | 0.0033 | 0.501 | 0.0046 | 0.0061 | – | – | – | – | –
PGT-121 monoclonal antibody (4838_L06; 4873_E03) | – | – | > 10 | – | – | – | – | – | – | – | – | – | – | – | – | – | – | – | – | –
PGT-122 (B cell culture well 4877_D15) (antibody) | – | – | – | – | – | – | – | – | – | – | – | – | – | – | – | – | 37.5 | 2.3 | 5.4 | 1.3
PGT-135 monoclonal antibody (5343_B08; 5344_E16) | 0.104 | 0.0183 | 6.79 | > 10 | 2.16 | > 10 | 0.545 | > 10 | > 10 | > 10 | 0.0123 | > 10 | > 10 | 0.157 | 0.113 | – | – | – | – | –
1496_C09 (PG9) (TCN-109) monoclonal antibody | – | 0.048 | 0.687 | – | 0.121 | 0.214 | – | 0.31 | – | 2.45 | 0.113 | 0.0375 | – | 0.161 | 0.0048 | – | – | – | – | –
PGT-122 monoclonal antibody (4877_D15) | 0.0337 | 0.0138 | > 10 | 0.0471 | 2.06 | 0.0851 | 0.992 | 1.46 | 0.191 | 0.0388 | 0.0089 | 1.68 | 0.522 | 0.0072 | 0.0727 | – | – | – | – | –
